Assay results from patent publication US6319692.

System: phiFSW integrase (Int) (Lactobacillus casei temperate phage phiFSW)
Experiment: cell_activity

attB (L. casei YIT9029)
activity (transformants/ug DNA) (chromosomal attB as integration site, attB lost and attL/attR formed in all analysed transformants, in vivo, no direct binding measured): 1000

attP (phiFSW)
activity (transformants/ug DNA) (pMSK742 integration into YIT9029 chromosome via attP x attB, no transformants when int region deleted, attL and attR confirmed by PCR, Southern and sequencing): 1000
